Columns and labels:
Assay in all cases: GST pull-down from transfected MCF-7 lysate, western blot
[1] = molecular target: T1, vimentin deletion mutant containing aa 97-466 of SEQ ID NO: 1 (human, UniProt P08670 97-464)
T1 construct: Tested in lysate of transfected MCF-7 cells; The forward oligo carries an ATG start codon before the fragment; not shown: C-terminal Myc and His tags of the pcDNA3.1/MycHis B vector
Method: (§1) Full length vimentin or its deletion mutant constructs were transfected into MCF-7 cells. After incubation cells were lysed and lysate was used in pull-down reaction using GST-tagged CD44-HABD proteins immobilised onto glutathione sepharose beads. After pull-down, beads were washed and bound proteins were eluted. Eluates were analysed on western blot. A, vimentin deletion mutants used in pull-down reactions. B, WB of pull-down reactions from vimentin and its deletion mutant transfected cell lysates.
(§2) CD44-3MUT binding of vimentin deletion mutants was tested using GST pull-down from cell lysates. MCF-7 cells were transfected with vimentin deletion-constructs on 15 cm cell culture plates using 20 µg DNA with polyethyleneimine (PEI; DNA and PEI were used in ratio 1:2). Transfected cells were incubated at 37° C. for 72 h. Thereafter, adherent cells were washed once with cold PBS and lysed in 2 ml of lysis buffer containing 50 mM Tris pH 8.0, 50 mM NaCl, 2% CHAPS and protease inhibitor cocktail (Roche). For removal of insoluble material the lysates were centrifuged 14000 rpm 30 min at 4° C. Resulting lysates were used in GST pull-down. For pull-down 10 µg GST, GST-HABD or GST-3MUT were immobilised onto glutathione sepharose 4 fast flow beads (GE Healthcare) in 0.5 ml of PBS. Cell lysates were precleared by incubating the lysates with GST-coupled glutathione beads for 2 h at 4° C. with continuous rotation. After preclearing, the lysates (0.6 vol per reaction) were incubated over-night at 4° C. with GST, GST-HABD or GST-3MUT proteins immobilised onto 25 µl glutathione sepharose beads. After pull-down reactions, beads were washed 4 times with 0.3 ml vol wash buffer containing 50 mM Tris pH 8.0, 150 mM NaCl and protease inhibitor cocktail. Bound proteins were eluted 3 times with 25 µl volume elution buffer 20 mM reduced glutathione, 50 mM Tris pH 8.0. Eluates were pooled and after SDS PAAG pull-down reactions were analysed by western blotting with anti-His specific pAb (H-15) (Santa Cruz Biotechnology) or anti-vimentin specific pAb (Genway).

[2] = molecular target: T2, vimentin deletion mutant containing aa 407-466 of SEQ ID NO: 1 (human, UniProt P08670 407-464)
T2 construct: Tested in lysate of transfected MCF-7 cells; not shown: EGFP and linker of the pEGFP-C2 vector
T2 sequence (P08670 other isoform, or with tags, fused parts or gaps mutant): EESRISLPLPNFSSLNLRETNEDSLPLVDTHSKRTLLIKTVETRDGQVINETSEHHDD
Method: as §1, §2

[3] = molecular target: T3, vimentin deletion mutant containing aa 134-466 of SEQ ID NO: 1 (human, UniProt P08670 134-464)
T3 construct: Tested in lysate of transfected MCF-7 cells; not shown: EGFP and linker of the pEGFP-C3 vector
T3 sequence (P08670 other isoform, or with tags, fused parts or gaps mutant): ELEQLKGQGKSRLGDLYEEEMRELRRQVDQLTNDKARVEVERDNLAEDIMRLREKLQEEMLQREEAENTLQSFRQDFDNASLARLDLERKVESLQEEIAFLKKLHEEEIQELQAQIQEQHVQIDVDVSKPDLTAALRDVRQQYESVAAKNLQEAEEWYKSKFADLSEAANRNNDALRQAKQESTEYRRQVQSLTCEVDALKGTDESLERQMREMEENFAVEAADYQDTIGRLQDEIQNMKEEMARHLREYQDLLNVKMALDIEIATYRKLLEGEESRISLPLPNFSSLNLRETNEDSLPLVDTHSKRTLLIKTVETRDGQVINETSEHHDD
Method: as §1, §2

Measured: binding result

T1 sequence (P08670 other isoform, or with tags, fused parts or gaps mutant): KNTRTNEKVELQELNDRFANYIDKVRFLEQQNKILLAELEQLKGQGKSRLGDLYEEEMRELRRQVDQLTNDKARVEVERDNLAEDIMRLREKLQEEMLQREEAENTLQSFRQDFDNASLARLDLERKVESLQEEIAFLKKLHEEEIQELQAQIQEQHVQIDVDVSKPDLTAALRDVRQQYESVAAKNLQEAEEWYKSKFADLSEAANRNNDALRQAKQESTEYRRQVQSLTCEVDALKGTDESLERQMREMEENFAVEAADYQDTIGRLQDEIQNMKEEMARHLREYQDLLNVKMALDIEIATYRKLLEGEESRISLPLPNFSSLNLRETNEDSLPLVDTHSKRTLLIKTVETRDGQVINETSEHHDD

B1: GST tagged CD44-HABD R41AR78SY79S mutant (CD44-3MUT) (other, not shown: a dimerising Fc or GST; small tags and cut ends)
chain: QIDLNMTCRFAGVFHVEKNGAYSISRTEAADLCKAFNSTLPTMAQMEKALSIGFETCSSGFIEGHVVIPRIHPNSICAANNTGVYILTSNTSQYDTYCFNASAPPEEDCTSV
notes: Immobilised on glutathione sepharose beads in the pull-downs; also called GST-3MUT; GST-SB101
no binding: all assays above
